Assay results: US20240043528A1, “NANOBODY-OGA FUSIONS AND USES THEREOF” (President and Fellows of Harvard College, priority 2020, published 2024)

Molecular target: T1, OGT with C-terminal His tag (human, UniProt O15294 1-1046, limits assumed)
T1 construct: also called OGT-His; pCMV3-OGT-His; not shown: C-terminal His tag
T1 sequence (looked up): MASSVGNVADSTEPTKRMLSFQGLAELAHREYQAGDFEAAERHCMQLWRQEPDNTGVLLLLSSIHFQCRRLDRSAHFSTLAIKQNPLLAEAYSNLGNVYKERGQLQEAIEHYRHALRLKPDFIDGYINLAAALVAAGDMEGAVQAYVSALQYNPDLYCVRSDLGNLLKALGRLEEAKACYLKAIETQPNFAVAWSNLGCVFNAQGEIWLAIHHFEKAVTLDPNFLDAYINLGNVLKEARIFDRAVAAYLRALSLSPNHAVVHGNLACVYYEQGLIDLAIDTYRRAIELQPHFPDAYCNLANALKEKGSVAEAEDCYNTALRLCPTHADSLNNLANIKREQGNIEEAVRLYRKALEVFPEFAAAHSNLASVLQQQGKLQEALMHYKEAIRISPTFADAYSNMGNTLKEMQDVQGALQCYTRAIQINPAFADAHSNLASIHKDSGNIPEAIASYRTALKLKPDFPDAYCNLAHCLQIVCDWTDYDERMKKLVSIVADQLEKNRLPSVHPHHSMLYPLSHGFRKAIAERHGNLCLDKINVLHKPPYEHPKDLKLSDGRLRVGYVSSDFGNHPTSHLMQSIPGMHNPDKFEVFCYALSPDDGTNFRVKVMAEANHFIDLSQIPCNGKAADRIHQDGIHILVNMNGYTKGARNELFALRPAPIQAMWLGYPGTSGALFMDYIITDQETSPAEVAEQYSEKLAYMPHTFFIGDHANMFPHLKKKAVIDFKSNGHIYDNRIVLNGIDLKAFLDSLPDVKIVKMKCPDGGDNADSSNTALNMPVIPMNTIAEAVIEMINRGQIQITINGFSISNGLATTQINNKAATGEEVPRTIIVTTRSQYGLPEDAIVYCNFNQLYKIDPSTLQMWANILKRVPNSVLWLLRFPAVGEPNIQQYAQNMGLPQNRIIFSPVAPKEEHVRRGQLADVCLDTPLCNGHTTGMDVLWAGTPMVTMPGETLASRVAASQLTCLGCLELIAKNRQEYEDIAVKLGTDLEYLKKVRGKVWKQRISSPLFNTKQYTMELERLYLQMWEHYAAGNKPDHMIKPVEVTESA
Assay: co-immunoprecipitation with beads against the His tag of OGT from HEK 293T lysates, immunoblot
Procedure: Overexpressed OGT and its interacting proteins were co-immunoprecipitated by beads against His tag. Whole cell lysates and co-immunoprecipitated proteins were analyzed by immunoblotting assays using the indicated antibodies. Anti-myc and anti-HA blots detect expression of full-length OGA (fl-OGA), N-terminal fragment, and C-terminal fragment, respectively. The data are representative of two biological replicates.
For immunoprecipitation of proteins with His tag, cells were lysed in a buffer containing 50 mM Tris HCl pH 8.0, 150 mM NaCl, 1% Triton X-100, 5% glycerol, 1× protease inhibitor cocktail and 10 μM Thiamet-G on ice for 20 min. Cell lysates with equal amounts of protein were diluted with wash buffer (50 mM Tris HCl pH 8.0, 150 mM NaCl, 0.01% Tween-20) and incubated with pre-washed His-Tag Dynabeads (Invitrogen, 10103D) at room temperature for 20 min with mixing, following the manufacturer's instructions. After washed 4 times with wash buffer, the enriched proteins were eluted with elution buffer (300 mM Imidazole, 50 mM Tris HCl pH 8.0, 150 mM NaCl, 0.01% Tween-20) on a shaker for 10 min at room temperature.

- binding result: no binding
B1: split OGA (N2+C3) (enzyme)
chain 1: MEQKLISEEDLAIAMVQKESQATLEERESELSSNPAASAGASLEPPAAPAPGEDNPAGAGGAAVAGAAGGARRFLCGVVEGFYGRPWVMEQRKELFRRLQKWELNTYLYAPKDDYKHRMFWREMYSVEEAEQLMTLISAAREYEIEFIYAISPGLDITFSNPKEVSTLKRKLDQVSQFGCRSFALLFDDIDHNMCAADKEVFSSFAHAQVSITNEIYQYLGEPETFLFCPTEYCGTFCYPNVSQSPYLRTVGEKLLPGIEVLWTGPKVVSKEIPVESIEEVSKIIKRAPVIWDNIHANDYDQKRLFLGPYKGRSTELIPRLKGVLTNPNCEFEANYVAIHTLATWYKSNMNGVRKDVVMTDSEDSTVSIQIKLENEGSDEDIETDVLYSPQMALKLALTEWLQEFGVPHQYSSR
chain 2: MAYPYDVPDYAAIAEKPLYTAEPVTLEDLQLLADLFYLPYEHGPKGAQMLREFQWLRANSSVVSVNCKGKDSEKIEEWRSRAAKFEEMCGLVMGMFTRLSNCANRTILYDMYSYVWDIKSIMSMVKSFVQWLGCRSHSSAQFLIGDQEPWAFRGGLAGEFQRLLPIDGANDLFFQPP
notes: Two co-expressed fragments
